Results as given in paper PMC6241251.

Biological target: human SK4 (small-conductance Ca2+-activated K+ channel), full-length (human) (UniProt O15554)
Assay: cryo-EM structure

UniProt O15554, sequence (O15554 whole entry): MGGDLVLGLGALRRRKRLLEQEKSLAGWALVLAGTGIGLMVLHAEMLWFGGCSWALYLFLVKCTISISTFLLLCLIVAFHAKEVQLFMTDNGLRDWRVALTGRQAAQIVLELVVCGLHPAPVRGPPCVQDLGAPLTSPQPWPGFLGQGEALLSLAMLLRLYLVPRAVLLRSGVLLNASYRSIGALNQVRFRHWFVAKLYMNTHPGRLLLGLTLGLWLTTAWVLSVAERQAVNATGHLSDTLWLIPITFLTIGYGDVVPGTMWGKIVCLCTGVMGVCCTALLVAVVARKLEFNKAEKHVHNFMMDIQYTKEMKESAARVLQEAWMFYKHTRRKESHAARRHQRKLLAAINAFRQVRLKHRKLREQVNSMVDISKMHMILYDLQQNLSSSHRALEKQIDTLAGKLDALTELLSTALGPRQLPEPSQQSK

stoichiometry N (CaMs per channel tetramer): 4
Substance: calmodulin (from UniProt P0DP23 1-149) (natural protein; other documents disagree on this pair)
